According to PMC12830966:

Molecular target: NFIA full-length (human, UniProt Q12857 1-509)
Experiment: BLI

Sequence of NFIA full-length (Q12857 whole entry): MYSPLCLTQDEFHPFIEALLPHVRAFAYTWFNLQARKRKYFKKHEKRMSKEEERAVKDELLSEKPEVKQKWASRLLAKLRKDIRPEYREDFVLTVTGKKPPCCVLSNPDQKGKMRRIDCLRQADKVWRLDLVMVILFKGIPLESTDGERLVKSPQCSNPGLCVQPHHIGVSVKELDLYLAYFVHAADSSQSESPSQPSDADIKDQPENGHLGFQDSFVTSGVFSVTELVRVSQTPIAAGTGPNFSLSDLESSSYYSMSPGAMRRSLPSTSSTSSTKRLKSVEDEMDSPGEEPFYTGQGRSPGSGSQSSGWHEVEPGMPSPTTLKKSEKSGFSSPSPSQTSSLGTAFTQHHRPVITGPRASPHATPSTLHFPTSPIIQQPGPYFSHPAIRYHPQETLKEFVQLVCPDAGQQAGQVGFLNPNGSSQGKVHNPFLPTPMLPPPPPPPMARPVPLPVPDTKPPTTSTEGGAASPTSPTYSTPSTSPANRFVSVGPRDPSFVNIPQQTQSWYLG

B1: DNA-S (dsDNA)
DNA 1: AGTTGGCAAGTC
DNA 2: GACTTGCCAACT
Kd: 20.4 nM
